These results are taken from publication PMC10054347.

For one data set, the target named is Chymotrypsin (CTRC) (bovine (pancreas), UniProt P00766 1-245). Put plainly: bead-based affinity chromatography, fluorescence; PBS pH 7.4, room temperature, 1 h; EMSA 500 nM oligo + 200 µM protein, 5% agarose; bead assay with bead-immobilized protein, Alexa488 oligo 1-60 nM (lysozyme) o. For orientation: A gel shift assay detects complexes by their altered migration in electrophoresis.

The next data set has as its target Cytochrome c (equine (heart), UniProt P00004 2-105). The description is as above.
The target of another data set is Lysozyme C (Gallus gallus (Chicken), UniProt P00698 19-147). Described as above.
Chain of Lysozyme C (P00698 19-147): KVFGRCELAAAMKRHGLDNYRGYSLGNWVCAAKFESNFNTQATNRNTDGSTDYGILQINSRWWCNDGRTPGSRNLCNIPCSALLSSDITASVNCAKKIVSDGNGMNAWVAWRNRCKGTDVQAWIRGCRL
A further data set addresses BSA (Bos taurus (Bovine), UniProt P02769 25-607). Put plainly: EMSA; PBS pH 7.4, room temperature.
The next data set has as its target Chymotrypsin (Bos taurus (Bovine), UniProt P00766;P00766;P00766 1-13;16-146;149-245). Kind of data set: pulldown; PBS pH 7.4, room temperature.

Chain of Cytochrome c (P00004 2-105): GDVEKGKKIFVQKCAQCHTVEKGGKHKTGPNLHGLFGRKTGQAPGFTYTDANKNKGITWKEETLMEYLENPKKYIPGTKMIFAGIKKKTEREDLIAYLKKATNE
Chain of BSA (P02769 25-607): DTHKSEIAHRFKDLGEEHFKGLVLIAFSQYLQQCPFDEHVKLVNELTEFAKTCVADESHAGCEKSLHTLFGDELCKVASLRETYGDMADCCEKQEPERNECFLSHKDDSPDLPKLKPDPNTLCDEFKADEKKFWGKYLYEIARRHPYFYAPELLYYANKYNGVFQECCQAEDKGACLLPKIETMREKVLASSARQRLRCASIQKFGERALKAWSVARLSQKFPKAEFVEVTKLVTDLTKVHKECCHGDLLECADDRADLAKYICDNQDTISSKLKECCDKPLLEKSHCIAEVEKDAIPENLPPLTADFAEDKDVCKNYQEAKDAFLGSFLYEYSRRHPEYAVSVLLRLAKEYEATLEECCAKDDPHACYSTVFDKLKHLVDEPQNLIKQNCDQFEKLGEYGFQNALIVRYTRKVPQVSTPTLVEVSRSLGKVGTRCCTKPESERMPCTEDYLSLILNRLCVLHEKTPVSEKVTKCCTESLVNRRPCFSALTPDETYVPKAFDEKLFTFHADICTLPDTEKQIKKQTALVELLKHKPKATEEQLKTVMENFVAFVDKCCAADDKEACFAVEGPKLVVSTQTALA

B1: oligonucleotide 1, Alexa488 (ssDNA)
DNA: ATAAATTTAAGACATGAAAAAATAAATTTTTATTTTTTTACGTTTTTATT
As to B1, the Kd with Chymotrypsin (CTRC) turned out to be 1400 nM; in the data set with Cytochrome c it was 1400 nM; with Lysozyme C, 14 nM.

B2:  (ssDNA)
DNA: B1 DNA
Take B2: the binding result with BSA is “no binding”. For the same molecule, the Kd with Chymotrypsin came to 1400 nM.

B3: oligonucleotide 2, Alexa488 (ssDNA)
DNA: CGGTCCTCAGATGTGATTCCATCCTTCTTTTGAGCAAACTACCTGTATAACGTAAGTCCGTGTGTGCGAA
Turning to B3, the values for the Kd with Chymotrypsin (CTRC), with Cytochrome c and with Lysozyme C were 3300 nM, 1100 nM and 8 nM, respectively.

B4:  (ssDNA)
DNA: B3 DNA
In the case of B4, in the data set with BSA, the binding result is recorded as “no binding”. The molecule further had a dissociation constant (Kd) with Chymotrypsin of 3300 nM.

The Kd is the equilibrium constant for the complex coming apart.
